# Test results from paper PMC2912425 (Biochemistry, 2010).
# T1: 6xHis Grsp1_(2-400) (mouse, UniProt Q920B0-2 2-400)
# T1 sequence (looked up): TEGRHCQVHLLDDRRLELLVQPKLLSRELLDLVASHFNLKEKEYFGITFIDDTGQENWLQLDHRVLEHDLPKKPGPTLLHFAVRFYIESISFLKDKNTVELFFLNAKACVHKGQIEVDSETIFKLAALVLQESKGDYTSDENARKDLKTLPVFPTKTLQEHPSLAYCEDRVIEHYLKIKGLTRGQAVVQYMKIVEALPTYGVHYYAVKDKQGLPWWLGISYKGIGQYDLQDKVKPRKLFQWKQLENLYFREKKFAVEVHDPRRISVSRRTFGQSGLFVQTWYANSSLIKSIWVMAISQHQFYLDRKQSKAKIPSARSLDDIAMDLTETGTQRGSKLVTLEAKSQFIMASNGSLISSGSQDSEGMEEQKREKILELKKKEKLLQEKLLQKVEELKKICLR
# What was measured:
# SEC = biological target: the molecule itself; assay: SEC
# 6xHis Grsp1_(2-400) = biological target: T1, 6xHis Grsp1_(2-400); assay: SEC
# AUC = biological target: the molecule itself; assay: AUC
percent of Grsp1_(2-400) bound (6xHis Grsp1_(2-400)) [%],Binder,stoichiometry N (SEC),stoichiometry N (AUC)
> 90,"6xHis Grp1_(13-248) (domain or fragment, mouse, UniProt O08967 13-248, looked up) PEDLSLEEREELLDIRRRKKELIDDIERLKYEIAEVMTEIDNLTSVEESKTTQRNKQIAMGRKKFNMDPKKGIQFLIENDLLQSSPEDVAQFLYKGEGLNKTVIGDYLGERDDFNIKVLQAFVELHEFADLNLVQALRQFLWSFRLPGEAQKIDRMMEAFASRYCLCNPGVFQSTDTCYVLSFAIIMLNTSLHNHNVRDKPTAERFITMNRGINEGGDLPEELLRNLYESIKNEPF",2,–
–,"6xHis ARNO_(2-252) (domain or fragment, human, UniProt Q99418 2-252, looked up) EDGVYEPPDLTPEERMELENIRRRKQELLVEIQRLREELSEAMSEVEGLEANEGSKTLQRNRKMAMGRKKFNMDPKKGIQFLVENELLQNTPEEIARFLYKGEGLNKTAIGDYLGEREELNLAVLHAFVDLHEFTDLNLVQALRQFLWSFRLPGEAQKIDRMMEAFAQRYCLCNPGVFQSTDTCYVLSFAVIMLNTSLHNPNVRDKPGLERFVAMNRGINEGGDLPEELLRNLYDSIRNEPFKIPEDDGND",–,2
> 90,"6xHis Cytohesin-1_(2-244) (domain or fragment, human, UniProt Q15438 2-244, looked up) EEDDSYVPSDLTAEERQELENIRRRKQELLADIQRLKDEIAEVANEIENLGSTEERKNMQRNKQVAMGRKKFNMDPKKGIQFLIENDLLKNTCEDIAQFLYKGEGLNKTAIGDYLGERDEFNIQVLHAFVELHEFTDLNLVQALRQFLWSFRLPGEAQKIDRMMEAFAQRYCQCNNGVFQSTDTCYVLSFAIIMLNTSLHNPNVKDKPTVERFIAMNRGINDGGDLPEELLRNLYESIKNEPF",–,–
